This is an account of results in FireProtDB (doi:10.1021/bi201411c).

For this data set the following is noted: Nostoc ellipsosporum, pH 6, 25 °C, GdnHCl, sodium phosphate 20 mM, transition: 2, reversible: yes(90%), whole UniProt chain shown.

B1: Cyanovirin-N wild type, P81180 (protein)
chain: LGKFSQTCYNSAIQGSVLTSTCERTNGGYNTSSIDLNSVIENVDGSLKWQPSNFIETCRNTQLAGSSELAAECKTRAQQFVSTKINLDDHIANIDGTLKYE
As to B1, under “CD”, the denaturant m value worked out at 2 kcal/mol/M and the “denaturant midpoint (higher = more stable)” value was 2.5 M. Moreover, under “fluorescence”, the denaturant m value turned out to be 1.9 kcal/mol/M and the “denaturant midpoint (higher = more stable)” value was determined as 2.6 M.
